Measured values as given in publication PMC2946066.

Target: VHH ALc-B8 expressed as thioredoxin fusion protein (alpaca)
Experiment: SPR

recombinant BoNT/A protease (light chain), amino acids 1–448 of BoNT/A holotoxin (from UniProt P0DPI1 1-448) (enzyme)
Kd: 1.06 nM
